Patent publication US20150216933A1, “HEMATOPOIETIC STEM CELL GROWTH FACTOR” (DUKE UNIVERSITY, priority 2008, published 2015)

Legend:
[1] = system: long-term repopulating HSCs; assay: Secondary competitive repopulating transplant assay; format: in vivo, mouse
Protocol: Secondary competitive transplant assays were performed using whole BM harvested from primary CD45. 2^+ mice at 24 weeks following transplantation with either CD45. 1^+ BM 34^−KSL cells or the progeny of 34^−KSL cells following culture with TSF alone or TSF+PTN. Secondary recipient CD45. 2^+ C57Bl6 mice were irradiated with 950 cGy TBI and PB analysis of donor cell engraftment was performed at 12 weeks post-transplantation in secondary mice.
In order to confirm that PTN caused the amplification of long-term repopulating HSCs with serial repopulating capacity, secondary transplants were performed. Importantly, secondary CD45.

PTEN = assay: qRT-PCR of KSL cells after culture with TSF+PTN; format: cell-based, mouse; conditions: HSCs following PTN exposure
Protocol: (§1) FIGS. 7A and 7B. […] (FIG. 7B) BM KSL cells were placed in culture with TSF (black bars) or TSF+100 ng/mL PTN (gray bars)×7 days and KSL cells were then isolated via FACS-sorting at day +7 for qRT-PCR analysis and comparison of gene expression. […] All comparisons were one tailed t tests.
(§2) RT-PCR analyses of PTN in ECs and HES-1, GFI-1 and PTEN in BM KSL cells and FACS-sorted KSL cells following culture were performed using a 2-step RTPCR reaction as previously described (Chute et al, Proc Natl Acad Sci USA 103, 11707-12 (2006)). Conditioned medium (CM) was generated from HUBECs and non-brain ECs as previously described (Chute et al, Blood 100:4433-9 (2002), Chute et al, Blood 105: 576-83 (2005)) and ELISA for PTN was performed following manufacturer's guidelines.
(§3) In order to determine a potential mechanism through which PTN mediates HSC expansion, an examination was made as to whether PTN altered pathways that are known to be affected by RPTPβ/ζ (Meng et al, Proc Natl Acad Sci USA 97: 2603-8 (2000), Stoica et al, J Biol Chem 276:16772-9 (2001), Landgraf et al, J Biol Chem 283:25036-45 (2008), Deuel et al, Arch Biochem Biophys 397:162-71 (2002)). Canonical PTN signaling occurs via binding and inactivation of RPTPβ/ζ (Meng et al, Proc Natl Acad Sci USA 97: 2603-8 (2000)), which can facilitate the tyrosine phosphorylation of several intracellular substrates, including Akt and β-catenin (Souttou et al, J Biol Chem 272:19588-93 (1997), Gu et al, FEBS Lett 581:382-8 (2007)). […] BM 34^− KSL cells were treated with TSF with and without 100 ng/mL PTN in the presence and absence of 10 μM wortmannin, a PI 3-kinase inhibitor (Souttou et al, J Biol Chem 272:19588-93 (1997)).

GFI-1 = assay: qRT-PCR of KSL cells after culture with TSF+PTN; format: cell-based, mouse; conditions: TSF+100 ng/mL PTN x 7 days vs TSF alone
Protocol: as §1, §2, §3

HES-1 = assay: qRT-PCR of KSL cells after culture with TSF+PTN; format: cell-based, mouse; conditions: TSF+100 ng/mL PTN x 7 days vs TSF alone
Protocol: as §1, §2, §3

34−KSL cells = assay: Competitive repopulating assay at 4 weeks (Example 1); format: in vivo, mouse; conditions: lineage repopulation in transplanted mice
Source text: 34^−KSL cells from B6.SJL mice, carrying the CD45.1 allele, were sorted into 96-well U-bottomplates (BD) containing IMDM+10% FBS+1% pcn/strp. Day 0 34^−KSL cells were either isolated for injection into recipient animals, or placed into cultures containing TSF, TSF+recombinant PTN, co-culture with HUBECs+goat IgG, or HUBECs+goat anti-PTN. Recipient C57BL6 animals, expressing the CD45.2 allele, received an LD100/30 dose of 950 cGy total body irradiation (TBI) using a Cs137 irradiator and then transplanted via tail vein injection with 10, 30 or 100 34^−KSL cells or their progeny following culture. A rescue dose of 1×10^5 non-irradiated CD45.2 MNCs were co-injected into recipient mice. Multi-lineage hematologic reconstitution was monitored in the peripheral blood (PB) by flow cytometry, as previously described, at 4, 8, 12, and 24 weeks posttransplant. PB was collected via submandibular puncture; cells were treated with RBC lysis buffer (Sigma-Aldrich), and washed twice prior to staining with FITC- or PE-CD45.1, FITC-CD45.2, PE-anti-Thy 1.2, APC-anti-B220, APC-anti-Ter-119, or PE-anti-Mac-1 and PE-anti-Gr1. Animals were considered to be engrafted if donor CD45.1 cells were present at >1% for all lineages (Zhang et al, Nat. Med. 12:240-245 (2006)).
For the competitive repopulating assays, recipient CD45. […]

[2] = system: BM stem and progenitor cells; assay: In vivo PTN study in mice irradiated with 700 cGy TBI; parameters: species or system mouse; conditions: 2 μg PTN intraperitoneally daily x 7 days, day +7
Protocol: Adult B6.SJL mice received a single fraction of 700 cGy TBI and were then treated either with PBS (saline) or 2 μg PTN intraperitoneally daily ×7 days (beginning 4 hours post irradiation). At day +7, the mice were sacrificed and total viable BM cells were quantified. Flow cytometric analysis was performed to estimate the percentage of BM KSL cells in each femur (Chute at al, Blood 109:2365-72 (2007), Salter et al, Blood 113:2104-7 (2009)). Colony forming cell (CFC) assays were performed using MethoCult M3434 media (Stem Cell Technologies, Vancouver, BC) as previously described (Chute et al, Blood 109:2365-72 (2007), Salter et al, Blood 113:2104-7 (2009)). Long-term cultureinitiating cell (LTC-IC) assays were performed as follows: Murine M2-10B4 (ATCC CRL-1972) BM stromal cells were plated in a 24 well dish and irradiated with 1500 cGy. Limiting dilutions (45,000, 90,000, and 180,000) of BM MNCs from irradiated mice that were treated with either PTN or PBS were added to the stromal cell layers and maintained in MyeloCult M5300 media (Stem Cell Technologies) with weekly half-medium changes for 4 weeks. At 4 weeks, the non-adherent and adherent cells (15,000 cells/dish) were collected and plated into 3×35 mm dishes (MethoCult, StemCell Technologies). After two weeks, hematopoietic colonies were counted and scored.
Since the addition of PTN was sufficient to induce HSC amplification in vitro a test was made as to whether administration of PTN could augment BM HSC regeneration in vivo following injury.

B1: PTN: Pleiotrophin, heparin binding growth factor; recombinant human PTN purchased from R&D systems (protein, UniProt P21246 33-168, looked up)
Pleiotrophin: GKKEKPEKKVKKSDCGEWQWSVCVPTSGDCGLGTREGTRTGAECKQTMKTQRCKIPCNWKKQFGAECKYQFQAWGECDLNTALKTRTGSLKRALHNAECQKTVTISKPCGKLTKPKPQAESKKKKKEGKKQEKMLD
For B1, which “multilineage differentiation in secondary mice” value ([1]; 12 weeks) is on record?
The value was “normal multilineage differentiation”.

What about the “CD45.1+ cell engraftment in secondary mice, fold higher vs 34−KSL cell group or TSF alone group” value ([1]; 12 weeks post-transplant, BM harvested at 24 weeks from primary recipients) of the same molecule?
The value was over 10 fold.

What about the “expression of PTEN” value (PTEN) of the same molecule?
Its value is “down-modulated”.

And the GFI-1 expression (GFI-1)?
Its GFI-1 expression is “upregulation”.

What about the HES-1 expression (HES-1) of the same molecule?
Its HES-1 expression is “upregulation”.

And the “multilineage differentiation potential of HSCs” value (34−KSL cells)?
Its value is “did not alter the normal multilineage differentiation potential”.

And the “increase in BM colony forming cells (CFCs)” value [2]?
The value was 2.9 fold.

What about the “increase in long-term culture-initiating cells (LTC-ICs) / BM HSC content” value [2] of the same molecule?
The value was 11 fold.

What about the “increase in primitive BM KSL cells compared to controls” value [2] of the same molecule?
The value was 5.6 fold.

And the “increase in total BM cells compared to controls” value [2]?
The value was 2.3 fold.
